{"source": "patent US11492376B2", "about": "“Toxoplasma gondii GRA8-derived recombinant peptides and composition for preventing or treating cancer comprising the same” (Industry—University Cooperation Foundation Hanyang …, priority 2019, dated 2022)", "molecules": {"B1": {"name": "(GLAGLAGLLGLEGLLGLPLGLLEGLWLGLELEGN)2-GG-ATATTTTTTR-GG-YRFTVQTTQN (protein)", "chain": "GLAGLAGLLGLEGLLGLPLGLLEGLWLGLELEGNGLAGLAGLLGLEGLLGLPLGLLEGLWLGLELEGNGGATATTTTTTRGGYRFTVQTTQN", "modifications": "His tag; rATRAM-G8-M/AS"}}, "key": {"HCT116 cells": {"test_system": "HCT116 cells", "test": "MitoTracker flow cytometry of mitochondrial mass in HCT116 cells", "format": "cell-based, human", "details": "1 day, via SIRT3 and PKCα", "protocol": "FIGS. 4A, 4B, 4C, 4D and 4E show HCT116 cell death by rATRAM-GRA8-M/AS-induced mitochondrial activation [(A and B) HCT116 cells were incubated with WT rGRA8 or rATRAM-GRA8-M/AS and its mutants for indicated times, and then cell viability was measured with an MTT assay. […] The cells were stimulated with rATRAM-GRA8-M/AS for 1 day and subjected to enzymatic activity of OXPHOS V, and (C) MitoTracker fluorescence signals were assessed by flow cytometry. (D) A bar graph indicates a mitochondrial mass (MFI), and (E) the mtDNA content of BMDM was measured by quantitative real-time PCR. The mtDNA content was normalized by nuclear DNA. Significant differences were determined by comparison with control treatment (** P<0.01; *** P<0.001). Data represents five independent experiments with similar results]."}, "HCT116 xenografts": {"test_system": "HCT116 xenografts", "test": "HCT116 xenograft mouse model, antitumor activity", "format": "in vivo, nude mouse"}, "ATP5A1, SIRT3 and ATP5C1": {"test_system": "ATP5A1, SIRT3 and ATP5C1", "test": "Target binding and OXPHOS profile in xenograft tumor lysates", "format": "in vivo, nude mouse", "details": "day 15", "protocol": "The length and width of a tumor were measured using calipers every third day for 30 days. On day 15 after administration, the mice were euthanized, and the interaction with GRA8, acetylation levels of ATP5A1 or expression of OXPHOS was analyzed (A, lower). The representative images of tumors from mice treated with rATRAM-GRA8-M/AS or mutants on day 15 (right). […] Significant differences (* P<0.05; ** P<0.01; *** P<0.001) were determined by comparison with rVector. Each group included 10 mice. Data represents two independent experiments with similar results],\nFor immunoprecipitation, cells were obtained, and then lysed in an NP-40 buffer supplemented with a complete protease inhibitor cocktail (Roche). After pre-purification with A/G agarose beads at 4° C. for 1 hour, a whole cell lysate was used for immunoprecipitation with indicated antibodies. Generally, 1 to 4 μg of commercial antibodies were added to 1 ml of the cell lysate, and incubated at 4° C. for 8 to 12 hours. After the addition of the protein A/G agarose beads for 6 hours, the immunoprecipitate was washed with a lysis buffer several times and heated for 5 minutes to be eluted with an SDS loading buffer.\nFor immunoblotting, polypeptides were subjected to electrophoresis (PAGE) with an SDS-polyacrylamide gel, and then transferred to a PVDF membrane (Bio-Rad) for separation. Immunodetection was performed with a specific antibody. Antibody binding was visualized by chemiluminescence (ECL; Millipore) and detected by a Vilber chemiluminescence analyzer (Fusion SL 3; Vilber Lourmat)."}}}
{"molecule": "B1", "values": [{"measurement": "mitochondrial mass", "setting": "HCT116 cells", "value": "enhanced"}, {"measurement": "growth of tumors which started to initially grow", "setting": "HCT116 xenografts; 20 μg/kg, intraperitoneal injection (FIG. 6A)", "value": "inhibited the growth of tumors"}, {"measurement": "growth of actively growing tumors", "setting": "HCT116 xenografts; 20 μg/kg, intraperitoneal injection (FIG. 6B)", "value": "inhibited the growth"}, {"measurement": "fold improvement of IC50 compared with rGRA8 (anti-tumor activity)", "setting": "HCT116 xenografts; HCT116 xenograft", "value": 500, "unit": "fold"}, {"measurement": "IC50 (antitumor activity in xenograft)", "setting": "HCT116 xenografts; HCT116 xenograft mice, intraperitoneal", "value": 20, "unit": "µg/kg"}, {"measurement": "tumor size and tumor growth", "setting": "HCT116 xenografts; HCT116 xenograft, effect dependent on PKCα, SIRT3, ATP5A1 and acetylation state of K506 and K531", "value": "a decrease in tumor size and delayed tumor growth"}, {"measurement": "fold improvement of IC50 compared with rGRA8 (anti-tumor activity)", "setting": "HCT116 xenografts; HCT116 xenograft, listed as rATRAM-G8-M/AS", "value": "approximately 500 fold"}, {"measurement": "ATP5A1 deacetylation level in tumor lysates", "setting": "ATP5A1, SIRT3 and ATP5C1", "value": "increased"}, {"measurement": "binding of rGRA8 to ATP5A1, SIRT3 and ATP5C1 in vivo", "setting": "ATP5A1, SIRT3 and ATP5C1", "value": "significantly increased"}, {"measurement": "mitochondrial protein biosynthesis level in tumor lysates", "setting": "ATP5A1, SIRT3 and ATP5C1", "value": "increased"}]}
